Data taken from PMC7203678.

Target: T1, C-reactive protein human, recombinant (human), P02741
T1 chain: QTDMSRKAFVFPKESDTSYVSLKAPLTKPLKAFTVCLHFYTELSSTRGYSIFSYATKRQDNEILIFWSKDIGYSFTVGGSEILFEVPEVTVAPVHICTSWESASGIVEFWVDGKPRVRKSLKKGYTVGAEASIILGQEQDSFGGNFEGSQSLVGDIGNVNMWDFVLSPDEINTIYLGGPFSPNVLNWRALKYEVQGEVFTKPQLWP
Assay: native MS
Settings: remark: other sources report otherwise

B1: C-reactive protein human, recombinant, P02741 19-224 (natural protein)
chain: QTDMSRKAFVFPKESDTSYVSLKAPLTKPLKAFTVCLHFYTELSSTRGYSIFSYATKRQDNEILIFWSKDIGYSFTVGGSEILFEVPEVTVAPVHICTSWESASGIVEFWVDGKPRVRKSLKKGYTVGAEASIILGQEQDSFGGNFEGSQSLVGDIGNVNMWDFVLSPDEINTIYLGGPFSPNVLNWRALKYEVQGEVFTKPQLWP
stoichiometry N: 5
